In US20250084161A1 (BIOSCEPTRE AUST, published 2025):
Positions count from the first letter of the chain named.

Experiments:
[1] = target: T1, pDisplay-ECD2 on HEK293 cells (Homo sapiens (Human), UniProt Q99572 47-306); assay: flow cytometry, live HEK293E cells expressing pDisplay-ECD2 ('HEK293E-pDisplay ED'), dAb at 5 uM, detection with anti-human IgG Fab
T1 construct: also called ECD2 as pDisplay; not shown: N-terminal HA tag of pDisplay (told for ECD1); c-Myc tag and PDGFR transmembrane anchorage of pDisplay (told for ECD1)
T1 sequence: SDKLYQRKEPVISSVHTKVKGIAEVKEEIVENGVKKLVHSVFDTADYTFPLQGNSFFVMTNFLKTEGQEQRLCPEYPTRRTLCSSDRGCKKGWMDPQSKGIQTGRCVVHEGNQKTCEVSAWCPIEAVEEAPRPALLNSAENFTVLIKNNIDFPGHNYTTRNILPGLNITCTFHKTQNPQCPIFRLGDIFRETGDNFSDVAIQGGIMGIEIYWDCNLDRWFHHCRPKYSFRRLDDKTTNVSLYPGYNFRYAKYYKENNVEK

[2] = target: T2, E200 peptide; assay: Biacore using E200, dAb-Fc
T2 construct: Made by solid phase synthesis at Chiron Mimotopes; Which form (free, conjugated, biotinylated) was on the chip is told only for some experiments; also called peptide antigen E200; E200-biotin peptide

[3] = target: T2, E200 peptide; assay: Biacore using E200 (10RU), dAb-Fc at 100 pM to 1 nM
[4] = target: T3, ECD2, P2X7 receptor (47-306), soluble (Homo sapiens (Human), UniProt Q99572 47-306); assay: Biacore against ECD2 in either solution form or as a ECD-Fc construct; Fc format; ECD2 in solution or as ECD-Fc, form not told
T3 construct: also called soluble ECD2; ECD2 domain
T3 sequence: T1 sequence

[5] = target: T3, ECD2, P2X7 receptor (47-306), soluble; assay: Biacore, labelled dAb domain at 10 and 5 nM; target taken as ECD2 from the paragraph before; Alexa488-labelled dAb domain, different parent
[6] = target: T3, ECD2, P2X7 receptor (47-306), soluble; assay: Biacore against ECD2 in either solution form or as a ECD-Fc construct; Fc format taken from context
[7] = target: T2, E200 peptide; assay: Biacore, E200 peptide
[8] = target: T3, ECD2, P2X7 receptor (47-306), soluble; assay: Biacore, dAb domain without Fc; dAb domain, no Fc format
[9] = target: T3, ECD2, P2X7 receptor (47-306), soluble; assay: single domain format; method not given
[10] = target: T3, ECD2, P2X7 receptor (47-306), soluble; assay: Biacore against ECD2 in either solution form or as a ECD-Fc construct; Fc construct
[11] = target: T3, ECD2, P2X7 receptor (47-306), soluble; assay: Biacore, labelled dAb domain at 5 and 2.5 nM; target taken as ECD2 from the sentence before; Alexa488-labelled dAb domain

B1: 42.2 (other)
VH single domain (dAb): EVQMLESGGGLVQPGESLRLSCAASGFTFDNVEMSWVRQAPGKGLEWVSSIGSKGEYTYYADSVKGRFTISRDNSKNTLYLQMNSPRAEDTAVYYCAQTVNVPEPAFAYWGQGTLVTVSS
notes: also called PEP2-42-2; PEP2-42-2 dAb
- binding result [1]: binds

B2: PEP2-42 Fc (Fc fusion)
chain: B1 VH single domain (dAb) with M4L, E16G, Y57D, P86L
notes: Standard format dAb-Fc with human type IgG1 Fc subtype; also called 2-42 (PEP-Fc); not shown: human IgG1 Fc
- Kd [2]: 5.5 nM

B3: 2.4 (other)
VH single domain (dAb): EVQLLESGGGLVQPGGSLRLTCAASGFSFRNHDMGWVRQAPGKGLEWVSAISGSGGSTYYADSVKGRFTISRDNSKNTLYLQMNSLRAEDTAVYYCAEPKPMDTEFDYRSPGTLVTVSS
notes: Read as PEP2-2-4, in line with '2' = PEP2-2 and '47.1' = PEP2-47-1; it is not PEP2-4; also called PEP2-2-4; PEP2-2-4 dAb
- binding result [1]: binds

B4: PEP2-2-3 Fc (Fc fusion)
chain: B3 VH single domain (dAb) with T21S, S28T, R109W
notes: Standard format dAb-Fc with human type IgG1 Fc subtype; also called 2-2-3 (PEP-Fc); not shown: human IgG1 Fc
- Kd [3]: 0.13 nM
- Kd [4]: 1.5 nM

B5: PEP2-247-1 Fc (Fc fusion)
chain: B3 VH single domain (dAb) with T21S, S28T, S57G, K100S, P101H, M102F, T104R, E105P, P111Q
notes: Standard format dAb-Fc with human type IgG1 Fc subtype; also called 2-247-1 (PEP-Fc); 2-2/2-47-1 CDR crossover; not shown: human IgG1 Fc
- Kd [2]: 0.19 nM

B6: PEP2-2-1-1 Fc (Fc fusion)
chain: B3 VH single domain (dAb) with T21S, S28T
notes: Standard format dAb-Fc with human type IgG1 Fc subtype; also called 2-2-1-1 (PEP-Fc); not shown: human IgG1 Fc
- Kd [2]: 0.09 nM

B7: PEP2-2-2 Fc (Fc fusion)
chain: B3 VH single domain (dAb) with T21S, S28T, P111Q
notes: Standard format dAb-Fc with human type IgG1 Fc subtype; also called 2-2-2 (PEP-Fc); not shown: human IgG1 Fc
- Kd [2]: 0.1 nM

B8: PEP2-247-2 Fc (Fc fusion)
chain: B3 VH single domain (dAb) with T21S, S28T, D62N, K100S, P101H, M102F, T104R, E105P, P111Q
notes: Standard format dAb-Fc with human type IgG1 Fc subtype; also called 2-247-2 (PEP-Fc); 2-2-1/2-47-1 CDR crossover; not shown: human IgG1 Fc
- Kd [2]: 0.45 nM

B9: 2.5 (other)
VH single domain (dAb): B3 VH single domain (dAb) with T21S, S28T, N74D
notes: Read as PEP2-2-5; it is not PEP2-5; also called PEP2-2-5; PEP2-2-5 dAb
- binding result [1]: binds

B10: PEP2-472-12Alexa488 domain (other)
VH: B3 VH single domain (dAb) with T21S, F27Y, S28T, R30P, N31M, H32K, S57G
modifications: Alexa488 label attached (site not stated)
notes: Human VH dAb domain, labelled
- Kd [5]: 0.156 nM

B11: 47.1 (other)
VH single domain (dAb): EVQLLESGGGLVQPGGSLRLSCAASGYTFPMKDMGWVRQAPGKGLEWVSAISGSGGGTYYADSVKGRFTISRDNSKNTLYLQMNSLRAEDTAVYYCAEPSHFDRPFDYRSQGTLVTVSS
notes: also called PEP2-47-1; PEP2-47-1 dAb
- binding result [1]: binds

B12: PEP2-472-1 Fc (Fc fusion)
chain: B11 VH single domain (dAb) with S100K, H101P, F102M, R104T, P105E
notes: Standard format dAb-Fc with human type IgG1 Fc subtype; also called 2-47-1/2-2-2 CDR crossover; not shown: human IgG1 Fc
- Kd [2]: 0.09 nM
- Kd [6]: 0.584 nM

B13: PEP2-2-3 dAb (other)
VH: B3 VH single domain (dAb) with T21S, S28T, R109W
notes: Human VH dAb, unformatted; also called unformatted dAb PEP2-2-3
- Kd [7]: 7 nM

B14: PEP2-2-12 dAb domain (other)
VH: B3 VH single domain (dAb) with T21S, S28T, D62N, R109P
notes: Human VH dAb domain, no Fc format
- Kd [8]: 0.945 nM

B15: PEP2-47 dAb (other)
VH: B11 VH single domain (dAb) with Y27F, G57S, R109W, S110G
notes: Human VH dAb, unformatted
- binding result [9]: binds

B16: PEP2-2-1 Fc (Fc fusion)
chain: B3 VH single domain (dAb) with T21S, S28T, D62N
notes: Standard format dAb-Fc with human type IgG1 Fc subtype; also called PEP2-2-1 dAb-FC; not shown: human IgG1 Fc
- Kd [10]: 0.56 nM

B17: PEP2-2-12Alexa488 domain (other)
VH: B3 VH single domain (dAb) with T21S, S28T, D62N, R109P
modifications: Alexa488 label attached (site not stated)
notes: Human VH dAb domain, labelled; also called PEP2-2-12 with Alexa488 label
- Kd [11]: 0.174 nM

B18: PEP2-47 Fc (Fc fusion)
chain: B11 VH single domain (dAb) with Y27F, G57S, R109W, S110G
notes: Standard format dAb-Fc with human type IgG1 Fc subtype; also called 2-47 (PEP-Fc); not shown: human IgG1 Fc
- Kd [2]: 7.5 nM

B19: PEP2-47-1 Fc (Fc fusion)
chain: B11 VH single domain (dAb)
notes: Standard format dAb-Fc with human type IgG1 Fc subtype; also called 2-47-1 (PEP-Fc); not shown: human IgG1 Fc
- Kd [2]: 0.11 nM
